Test results: publication PMC10349056, “The combined action of the intracellular regions regulates FGFR2 kinase activity” (Communications Biology, 2023)
One block for each molecule: values may come before it. Where no end group is shown, it is not given here.

Key:
[1] = target: KD^pY1 (mono-phosphorylated FGFR2IIIb kinase domain) (UniProt P21802); assay: MST; Atto488-labeled protein titrated with the same unlabeled protein, 25 °C; apparent dimerization constant, dimer to monomers
[2] = target: CT^C1 (C-terminal tail of FGFR2IIIb C1 isoform, GST cleaved) (UniProt P21802); assay: MST; CT^C1 labeled with Atto488, titrated with unlabeled JM-KD^pY1 or KD^pY1, 25 °C
[3] = target: JM (juxtamembrane region of FGFR2IIIb, as used in MST and NMR); assay: MST; JM labeled with Atto 488, serial dilutions of KD titrated, 25 °C, 20 mM HEPES, 150 mM NaCl, 1 mM TCEP, 0.01% Tween 20, pH 7.5; apparent
[4] = target: FGFR2 C-terminal tail of the C1 isoform, untagged (the last 58 residues of FGFR2) (UniProt P21802); assay: SPR; untagged CT immobilised on a CM4 chip by amine coupling (about 200 RU); JM-KD proteins of different phosphorylation level injected at 30 µl/min, then buffer wash; steady-state fitting
[5] = target: FGFR2 juxtamembrane region (407-462), labelled with Atto 488 (UniProt P21802); assay: MST; JM labelled with Atto 488, serial dilutions of KD titrated, 25 °C; 20 mM HEPES, 150 mM NaCl, 1 mM TCEP, 0.01% Tween 20, pH 7.5; the text calls the constant of KD^pY1 apparent (Kd,app)
[6] = target: JM-KD^pY1 (mono-phosphorylated juxtamembrane region plus kinase domain) (UniProt P21802); assay: MST; Atto488-labeled protein titrated with the same unlabeled protein, 25 °C; apparent dimerization constant, dimer to monomers
[7] = target: CT^C1 (C-terminal tail of FGFR2IIIb C1 isoform, GST cleaved) (UniProt P21802); assay: SPR; BIAcore T100, CT^C1 immobilised on CM4 chip by amine coupling to about 200 RU, analytes at 30 µl/min
[8] = target: JM-KD^pY1 (mono-phosphorylated juxtamembrane region plus kinase domain) (UniProt P21802); assay: SPR; apparent dimerization constant of JM-KD^pY1 (Supplementary Fig. 2c)
[9] = target: FGFR2^C3 tagged with GFP or RFP; assay: FRET or BRET; FLIM of GFP- and RFP-tagged FGFR2 co-expressed in serum-starved HEK293T cells, fixed
[10] = target: FGFR2^C2 tagged with GFP or RFP; assay: as above
[11] = target: T1, FGFR2 kinase domain, mono-phosphorylated on Y657 (UniProt P21802-3 465-764, Y467F (worked out from the printed order of phosphorylation) | Y587F (worked …, phosphotyrosine at 657)); assay: MST; synthetic JM or CT peptides in serial dilution against KD^pY1, 25 °C; 20 mM HEPES, 150 mM NaCl, 1 mM TCEP, 0.01% Tween 20, pH 7.5; details: both partners purified
T1 construct: FGFR2 (IIIb isoform) kinase domain, residues 465-764; numbers count on: FGFR2IIIb (C1 isoform, 822 residues); also called KD^pY1; source: E. coli BL21(DE3), purified (Talon, Superdex 75)

[12] = target: T2, FGFR2 C-terminal tail of the C1 isoform, untagged, labelled with Atto 488 (UniProt P21802-3 765-822, Atto 488 dye label); assay: MST; CT labelled with Atto 488 (100 nM), 2-fold serial dilutions of JM peptides, 25 °C; 20 mM HEPES, 150 mM NaCl, 1 mM TCEP, 0.01% Tween 20, pH 7.5; details: both partners purified
T2 construct: FGFR2 (IIIb, C1 isoform) C-terminal tail, the last 58 residues of FGFR2; numbers count on: FGFR2IIIb (C1 isoform, 822 residues); also called CT^C1; source: E. coli BL21(DE3), purified as GST fusion, GST removed with thrombin
T2 sequence (looked up): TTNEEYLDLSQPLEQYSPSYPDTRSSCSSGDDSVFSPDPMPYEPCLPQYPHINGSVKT

[13] = target: JM (juxtamembrane region of FGFR2IIIb, as used in MST and NMR); assay: MST; JM labeled with Atto 488, two-fold serial dilution of CT titrated
[14] = target: T3, FGFR2 JM-KD, phosphorylation state pY3 (UniProt P21802-3 414-764, Y589F (worked out from the printed order of phosphorylation) | Y658F (worked …, phosphotyrosine at 657, 587 and 467)); assay: SPR; untagged CT immobilised on a CM4 chip by amine coupling (about 200 RU); JM-KD proteins of different phosphorylation level injected at 30 µl/min, then buffer wash; steady-state fitting; details: both partners purified
T3 construct: numbers count on: FGFR2IIIb (C1 isoform, 822 residues); also called JM-KD^pY3; source: E. coli BL21(DE3), purified (Talon, Superdex 75)

[15] = target: T4, FGFR2 JM-KD, phosphorylation state pY4 (UniProt P21802-3 414-764, Y658F (worked out from the printed order of phosphorylation) | Y734F (worked …, phosphotyrosine at 657, 587, 467 and 589)); assay: as above; details: both partners purified
T4 construct: numbers count on: FGFR2IIIb (C1 isoform, 822 residues); also called JM-KD^pY4; source: E. coli BL21(DE3), purified (Talon, Superdex 75)

FGFR2 JM-KD Y657/658F = target: T5, FGFR2 JM-KD Y657/658F (UniProt P21802-3 414-764, Y657/658F | Y657/658F); assay: as above; details: both partners purified
T5 construct: numbers count on: FGFR2IIIb (C1 isoform, 822 residues); source: E. coli BL21(DE3), purified (Talon, Superdex 75)

[16] = target: T6, FGFR2 JM-KD, phosphorylation state pY5 (UniProt P21802-3 414-764, Y734F (worked out from the printed order of phosphorylation), phosphotyrosine at 657, 587, 467, 589 and 658); assay: as above; details: both partners purified
T6 construct: numbers count on: FGFR2IIIb (C1 isoform, 822 residues); also called JM-KD^pY5; source: E. coli BL21(DE3), purified (Talon, Superdex 75)

[17] = target: T7, FGFR2 JM-KD wild type, phosphorylated (UniProt P21802-3 414-764, phosphotyrosines (phosphorylated wild type; sites not listed)); assay: as above; details: both partners purified
T7 construct: numbers count on: FGFR2IIIb (C1 isoform, 822 residues); also called JM-KD^pWT; JM-KD^pYWT; source: E. coli BL21(DE3), purified (Talon, Superdex 75)

[18] = target: T8, FGFR2 JM-KD, phosphorylation state pY2 (UniProt P21802-3 414-764, Y467F (worked out from the printed order of phosphorylation) | Y589F (worked …, phosphotyrosine at 657 and 587)); assay: as above; details: both partners purified
T8 construct: numbers count on: FGFR2IIIb (C1 isoform, 822 residues); also called JM-KD^pY2; source: E. coli BL21(DE3), purified (Talon, Superdex 75)

[19] = target: T1, FGFR2 kinase domain, …; assay: MST; synthetic JM or CT peptides in serial dilution against KD^pY1, 25 °C; 20 mM HEPES, 150 mM NaCl, 1 mM TCEP, 0.01% Tween 20, pH 7.5; details: both partners purified; remark: listed apart in the source
[20] = target: KD^pY1 (mono-phosphorylated FGFR2IIIb kinase domain) (UniProt P21802); assay: MST; peptide fragments of CT against KD^pY1 (Supplementary Table 4, Supplementary Fig. 3a)
[21] = target: T9, FGFR2 juxtamembrane region (407-462), labelled with Atto 488 (UniProt P21802-3 407-462, Atto 488 dye label); assay: MST; JM labelled with Atto488 (100 nM), 2-fold serial dilutions of CT peptides, 25 °C; 20 mM HEPES, 150 mM NaCl, 1 mM TCEP, 0.01% Tween 20, pH 7.5; details: both partners purified
T9 construct: FGFR2 (IIIb isoform) juxtamembrane region, residues 407-462; numbers count on: FGFR2IIIb (C1 isoform, 822 residues); also called JM; 407Juxtamembrane region462; source: synthetic peptide, bought: Genscript
T9 sequence (looked up): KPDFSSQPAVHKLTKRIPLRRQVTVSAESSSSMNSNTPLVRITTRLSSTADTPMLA

T1 sequence (P21802 464-763 Y466F/Y586F/Y588F/Y657F/Y733F): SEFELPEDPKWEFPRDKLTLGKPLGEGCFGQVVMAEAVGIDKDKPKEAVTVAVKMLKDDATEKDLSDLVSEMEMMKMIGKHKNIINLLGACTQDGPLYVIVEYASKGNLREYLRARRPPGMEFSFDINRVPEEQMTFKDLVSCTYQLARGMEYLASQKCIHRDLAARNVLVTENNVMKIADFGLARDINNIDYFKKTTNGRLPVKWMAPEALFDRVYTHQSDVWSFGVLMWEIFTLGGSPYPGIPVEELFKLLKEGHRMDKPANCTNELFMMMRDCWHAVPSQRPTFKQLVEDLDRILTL
T4 sequence (P21802 413-763 Y657F/Y733F): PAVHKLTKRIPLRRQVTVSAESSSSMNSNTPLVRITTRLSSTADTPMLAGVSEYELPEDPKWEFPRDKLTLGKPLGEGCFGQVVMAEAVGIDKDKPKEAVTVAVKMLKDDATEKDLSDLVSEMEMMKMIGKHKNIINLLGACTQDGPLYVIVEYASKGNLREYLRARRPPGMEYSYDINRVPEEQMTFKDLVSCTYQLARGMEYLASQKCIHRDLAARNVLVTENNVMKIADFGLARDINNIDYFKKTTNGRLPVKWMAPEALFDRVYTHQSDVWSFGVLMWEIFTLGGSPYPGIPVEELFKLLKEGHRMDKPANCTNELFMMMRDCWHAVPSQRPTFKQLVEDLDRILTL
T3 sequence (P21802 413-763 Y588F/Y657F/Y733F): as the sequence (P21802 413-763 Y657F/Y733F) above, with Y176F counted along it
T8 sequence (P21802 413-763 Y466F/Y588F/Y657F/Y733F): as the sequence (P21802 413-763 Y657F/Y733F) above, with Y54F, Y176F counted along it
T5 sequence (P21802 other isoform, or with tags, fused parts or gaps Y657/658F | Y657/658F | Y657/658F | Y657/658F): as the sequence (P21802 413-763 Y657F/Y733F) above, with Y244F, F321Y counted along it
T7 sequence (P21802 413-763): as the sequence (P21802 413-763 Y657F/Y733F) above, with F245Y, F321Y counted along it
T6 sequence (P21802 413-763 Y733F): as the sequence (P21802 413-763 Y657F/Y733F) above, with F245Y counted along it

Molecule: FGFR2 JM-KD, phosphorylation state pY6 (from UniProt P21802-3 414-764) (domain or fragment)
Kd [4]: 4.63 µM

Molecule: FGFR2 kinase domain, phosphorylation state pY6 (from UniProt P21802-3 465-764) (domain or fragment)
Kd [5]: 20.5 µM

Molecule: FGFR2^C3 tagged with GFP or RFP (receptor)
percent of molecules showing interaction [9]: 26%

Molecule: FGFR2^C2 tagged with GFP or RFP (receptor)
percent of molecules showing dimerization above the control threshold [10]: 16%

B1: JM peptide 407-420 (peptide)
peptide: KPDFSSQPAVHKLT
notes: FGFR2 (IIIb isoform) juxtamembrane region, residues 407-420; numbers count on: FGFR2IIIb (C1 isoform, 822 residues); source: synthetic peptide, bought: Genscript
Kd [11]: 105 ± 7.37 µM
Kd [12]: 200 ± 13.7 µM

B2: CT^C1 (C-terminal tail of FGFR2IIIb C1 isoform, GST cleaved) (domain or fragment)
chain: TTNEEYLDLSQPLEQYSPSYPDTRSSCSSGDDSVFSPDPMPYEPCLPQYPHINGSVKT
modifications: cysteine pairing not given here; also: Atto488 label (MST), place not given here, 15N-labeled (NMR)
Kd [13]: 20.2 µM

B3: FGFR2 C-terminal tail of the C1 isoform, untagged (the last 58 residues of FGFR2) (domain or fragment, UniProt P21802-3 765-822, looked up)
chain: TTNEEYLDLSQPLEQYSPSYPDTRSSCSSGDDSVFSPDPMPYEPCLPQYPHINGSVKT
notes: FGFR2 (IIIb, C1 isoform) C-terminal tail, the last 58 residues of FGFR2; numbers count on: FGFR2IIIb (C1 isoform, 822 residues); Unlabelled form: immobilised by amine coupling in SPR; added as 'CT' in the steady-state FRET; also called CT^C1; source: E. coli BL21(DE3), purified as GST fusion, GST removed with thrombin
Kd [14]: 3.27 µM
Kd [15]: 7.87 µM
Kd (FGFR2 JM-KD Y657/658F): 5.68 µM
Kd [16]: 1.6 µM
Kd [17]: 2.31 µM
Kd [18]: 4.08 µM

B6: CT peptide 808-822 (peptide)
peptide: PCLPQYPHINGSVKT
notes: FGFR2 (IIIb, C1 isoform) C-terminal tail, residues 808-822; numbers count on: FGFR2IIIb (C1 isoform, 822 residues); also called CT^808-822; source: synthetic peptide, bought: Genscript
Kd [19]: 257 ± 39.2 µM

B8: CT peptide 801-815 (peptide)
peptide: PDPMPYEPCLPQYPH
notes: numbers count on: FGFR2IIIb (C1 isoform, 822 residues); source: synthetic peptide, bought: Genscript
Kd [20]: 25.9 µM
Kd [19]: 25.8 ± 5.4 µM
Kd [21]: 63.6 ± 6.5 µM

B9: CT peptide 808-815 (peptide)
peptide: PCLPQYPH
notes: FGFR2 (IIIb, C1 isoform) C-terminal tail, residues 808-815; numbers count on: FGFR2IIIb (C1 isoform, 822 residues); also called CT^808-815; source: synthetic peptide, bought: Genscript
Kd [19]: 291 ± 21.4 µM
Kd [21]: 56.6 ± 5.5 µM

B10: CT peptide 808-819 (peptide)
peptide: PCLPQYPHINGS
notes: numbers count on: FGFR2IIIb (C1 isoform, 822 residues); also called 808PCLPQYPHINGS819; source: synthetic peptide, bought: Genscript
Kd [19]: 255 ± 37.9 µM

B11: CT peptide 815-822 (peptide)
peptide: HINGSVKT
notes: FGFR2 (IIIb, C1 isoform) C-terminal tail, residues 815-822; numbers count on: FGFR2IIIb (C1 isoform, 822 residues); also called CT^815-822; source: synthetic peptide, bought: Genscript
Kd [19]: 426 ± 42.5 µM

Other lines, results leading:

Kd [1]: 0.112 µM
Kd [2]: 3.75 µM
Kd [3]: 2.51 µM
Molecule: KD^pY1 (mono-phosphorylated FGFR2IIIb kinase domain) (from UniProt P21802-3 465-764) (domain or fragment)

Kd [6]: 3.46 µM
Kd [7]: 0.16 µM
Kd [2]: 0.304 µM
Kd [8]: 3.07 µM
Molecule: JM-KD^pY1 (mono-phosphorylated juxtamembrane region plus kinase domain) (from UniProt P21802-3 414-764) (domain or fragment)

Kd [11]: 36.8 ± 6.23 µM
B4: JM peptide 414-430 (peptide)
peptide: PAVHKLTKRIPLRRQVT
notes: as for B8

Kd [12]: 25.4 ± 3.26 µM
B5: JM peptide 449-462 (peptide)
peptide: TTRLSSTADTPMLA
notes: as for B8

Kd [12]: 372 ± 30.3 µM
B7: JM peptide 439-452 (peptide)
peptide: MNSNTPLVRITTRL
notes: FGFR2 (IIIb isoform) juxtamembrane region, residues 439-452; numbers count on: FGFR2IIIb (C1 isoform, 822 residues); source: synthetic peptide, bought: Genscript

Kd [12]: 3.23 ± 0.326 µM
B12: JM peptide 429-442 (peptide)
peptide: VTVSAESSSSMNSN
notes: as for B8
